Measurements reported in publication PMC12416549 (2024).
Where two headings read alike, the source gives them in different places.

T1: TNFR1 (Homo sapiens, UniProt P19438)
T1 chain: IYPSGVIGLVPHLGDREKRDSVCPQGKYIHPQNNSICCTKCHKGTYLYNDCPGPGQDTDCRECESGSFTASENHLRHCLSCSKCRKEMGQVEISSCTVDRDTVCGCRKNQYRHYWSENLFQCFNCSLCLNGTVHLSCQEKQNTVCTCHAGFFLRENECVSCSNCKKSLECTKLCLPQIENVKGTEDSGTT


Key:
[1] = molecular target: T1, TNFR1; test: yeast display SC50
[2] = molecular target: T1, TNFR1; test: yeast display SC50

apparent Kd (screen) [1] | apparent Kd (screen) [2] | Binder
718 pM |  | D65H (designed binder) MTLQELLREEALRRAEAEAFRYALELLAEKFPEQKEYLLDLAEEIESQIRSLSGVDVEDVRKFLHKEWAWVKELLAEHPAELAEVEAARAARLAELRAEVEAKVAA
2250 pM |  | Y37M (designed binder) MTLQELLREEALRRAEAEAFRYALELLAEKFPEQKEMLLDLAEEIESQIRSLSGVDVEDVRKFLDKEWAWVKELLAEHPAELAEVEAARAARLAELRAEVEAKVAA
593 pM |  | A98H (designed binder) MTLQELLREEALRRAEAEAFRYALELLAEKFPEQKEYLLDLAEEIESQIRSLSGVDVEDVRKFLDKEWAWVKELLAEHPAELAEVEAARAARLAELRHEVEAKVAA
2480 pM |  | F63L (designed binder) MTLQELLREEALRRAEAEAFRYALELLAEKFPEQKEYLLDLAEEIESQIRSLSGVDVEDVRKLLDKEWAWVKELLAEHPAELAEVEAARAARLAELRAEVEAKVAA
593 pM |  | A80Y (designed binder) MTLQELLREEALRRAEAEAFRYALELLAEKFPEQKEYLLDLAEEIESQIRSLSGVDVEDVRKFLDKEWAWVKELLAEHPYELAEVEAARAARLAELRAEVEAKVAA
869 pM |  | V100A (designed binder) MTLQELLREEALRRAEAEAFRYALELLAEKFPEQKEYLLDLAEEIESQIRSLSGVDVEDVRKFLDKEWAWVKELLAEHPAELAEVEAARAARLAELRAEAEAKVAA
956 pM |  | D65L (designed binder) MTLQELLREEALRRAEAEAFRYALELLAEKFPEQKEYLLDLAEEIESQIRSLSGVDVEDVRKFLLKEWAWVKELLAEHPAELAEVEAARAARLAELRAEVEAKVAA
446 pM |  | L96E (designed binder) MTLQELLREEALRRAEAEAFRYALELLAEKFPEQKEYLLDLAEEIESQIRSLSGVDVEDVRKFLDKEWAWVKELLAEHPAELAEVEAARAARLAEERAEVEAKVAA
593 pM |  | E77Q (designed binder) MTLQELLREEALRRAEAEAFRYALELLAEKFPEQKEYLLDLAEEIESQIRSLSGVDVEDVRKFLDKEWAWVKELLAQHPAELAEVEAARAARLAELRAEVEAKVAA
653 pM |  | V104G (designed binder) MTLQELLREEALRRAEAEAFRYALELLAEKFPEQKEYLLDLAEEIESQIRSLSGVDVEDVRKFLDKEWAWVKELLAEHPAELAEVEAARAARLAELRAEVEAKGAA
1860 pM |  | E9K (designed binder) MTLQELLRKEALRRAEAEAFRYALELLAEKFPEQKEYLLDLAEEIESQIRSLSGVDVEDVRKFLDKEWAWVKELLAEHPAELAEVEAARAARLAELRAEVEAKVAA
277 pM |  | R13F (designed binder) MTLQELLREEALFRAEAEAFRYALELLAEKFPEQKEYLLDLAEEIESQIRSLSGVDVEDVRKFLDKEWAWVKELLAEHPAELAEVEAARAARLAELRAEVEAKVAA
1050 pM |  | I45E (designed binder) MTLQELLREEALRRAEAEAFRYALELLAEKFPEQKEYLLDLAEEEESQIRSLSGVDVEDVRKFLDKEWAWVKELLAEHPAELAEVEAARAARLAELRAEVEAKVAA
7780 pM |  | D40H (designed binder) MTLQELLREEALRRAEAEAFRYALELLAEKFPEQKEYLLHLAEEIESQIRSLSGVDVEDVRKFLDKEWAWVKELLAEHPAELAEVEAARAARLAELRAEVEAKVAA
869 pM |  | E84I (designed binder) MTLQELLREEALRRAEAEAFRYALELLAEKFPEQKEYLLDLAEEIESQIRSLSGVDVEDVRKFLDKEWAWVKELLAEHPAELAIVEAARAARLAELRAEVEAKVAA
718 pM |  | E29P (designed binder) MTLQELLREEALRRAEAEAFRYALELLAPKFPEQKEYLLDLAEEIESQIRSLSGVDVEDVRKFLDKEWAWVKELLAEHPAELAEVEAARAARLAELRAEVEAKVAA
790 pM |  | E9D (designed binder) MTLQELLRDEALRRAEAEAFRYALELLAEKFPEQKEYLLDLAEEIESQIRSLSGVDVEDVRKFLDKEWAWVKELLAEHPAELAEVEAARAARLAELRAEVEAKVAA
446 pM |  | E77K (designed binder) MTLQELLREEALRRAEAEAFRYALELLAEKFPEQKEYLLDLAEEIESQIRSLSGVDVEDVRKFLDKEWAWVKELLAKHPAELAEVEAARAARLAELRAEVEAKVAA

apparent Kd (screen) [1] | apparent Kd (screen) [2] | Binder
956 pM |  | A106W (designed binder) MTLQELLREEALRRAEAEAFRYALELLAEKFPEQKEYLLDLAEEIESQIRSLSGVDVEDVRKFLDKEWAWVKELLAEHPAELAEVEAARAARLAELRAEVEAKVAW
446 pM |  | E95F (designed binder) MTLQELLREEALRRAEAEAFRYALELLAEKFPEQKEYLLDLAEEIESQIRSLSGVDVEDVRKFLDKEWAWVKELLAEHPAELAEVEAARAARLAFLRAEVEAKVAA
12500 pM |  | D59F (designed binder) MTLQELLREEALRRAEAEAFRYALELLAEKFPEQKEYLLDLAEEIESQIRSLSGVDVEFVRKFLDKEWAWVKELLAEHPAELAEVEAARAARLAELRAEVEAKVAA
653 pM |  | R8S (designed binder) MTLQELLSEEALRRAEAEAFRYALELLAEKFPEQKEYLLDLAEEIESQIRSLSGVDVEDVRKFLDKEWAWVKELLAEHPAELAEVEAARAARLAELRAEVEAKVAA
790 pM |  | E73C (designed binder) MTLQELLREEALRRAEAEAFRYALELLAEKFPEQKEYLLDLAEEIESQIRSLSGVDVEDVRKFLDKEWAWVKCLLAEHPAELAEVEAARAARLAELRAEVEAKVAA
539 pM |  | R61I (designed binder) MTLQELLREEALRRAEAEAFRYALELLAEKFPEQKEYLLDLAEEIESQIRSLSGVDVEDVIKFLDKEWAWVKELLAEHPAELAEVEAARAARLAELRAEVEAKVAA
 | 446 pM | E103K (designed binder) SMEEEVEKAAKEYEKKKKEAIEKHLEKLKAKDKEAAERFLKELEEAAKEYAKDEAKTMSEEEAKRRAKKYKEKVLLSELSEEEQKEIKEAEEKLVRTILKYVKEAAK
 | 446 pM | E60V (designed binder) SMEEEVEKAAKEYEKKKKEAIEKHLEKLKAKDKEAAERFLKELEEAAKEYAKDEAKTMSVEEAKRRAKKYKEKVLLSELSEEEQKEIKEAEEKLVRTILKYVEEAAK
 | 869 pM | Y101I (designed binder) SMEEEVEKAAKEYEKKKKEAIEKHLEKLKAKDKEAAERFLKELEEAAKEYAKDEAKTMSEEEAKRRAKKYKEKVLLSELSEEEQKEIKEAEEKLVRTILKIVEEAAK
 | 490 pM | L40R (designed binder) SMEEEVEKAAKEYEKKKKEAIEKHLEKLKAKDKEAAERFRKELEEAAKEYAKDEAKTMSEEEAKRRAKKYKEKVLLSELSEEEQKEIKEAEEKLVRTILKYVEEAAK
 | 539 pM | E5N (designed binder) SMEENVEKAAKEYEKKKKEAIEKHLEKLKAKDKEAAERFLKELEEAAKEYAKDEAKTMSEEEAKRRAKKYKEKVLLSELSEEEQKEIKEAEEKLVRTILKYVEEAAK
 | 12500 pM | Y13D (designed binder) SMEEEVEKAAKEDEKKKKEAIEKHLEKLKAKDKEAAERFLKELEEAAKEYAKDEAKTMSEEEAKRRAKKYKEKVLLSELSEEEQKEIKEAEEKLVRTILKYVEEAAK
 | 869 pM | H24W (designed binder) SMEEEVEKAAKEYEKKKKEAIEKWLEKLKAKDKEAAERFLKELEEAAKEYAKDEAKTMSEEEAKRRAKKYKEKVLLSELSEEEQKEIKEAEEKLVRTILKYVEEAAK
 | 7070 pM | A63E (designed binder) SMEEEVEKAAKEYEKKKKEAIEKHLEKLKAKDKEAAERFLKELEEAAKEYAKDEAKTMSEEEEKRRAKKYKEKVLLSELSEEEQKEIKEAEEKLVRTILKYVEEAAK
 | 13800 pM | A10Y (designed binder) SMEEEVEKAYKEYEKKKKEAIEKHLEKLKAKDKEAAERFLKELEEAAKEYAKDEAKTMSEEEAKRRAKKYKEKVLLSELSEEEQKEIKEAEEKLVRTILKYVEEAAK
 | 869 pM | L43V (designed binder) SMEEEVEKAAKEYEKKKKEAIEKHLEKLKAKDKEAAERFLKEVEEAAKEYAKDEAKTMSEEEAKRRAKKYKEKVLLSELSEEEQKEIKEAEEKLVRTILKYVEEAAK
 | 869 pM | R38M (designed binder) SMEEEVEKAAKEYEKKKKEAIEKHLEKLKAKDKEAAEMFLKELEEAAKEYAKDEAKTMSEEEAKRRAKKYKEKVLLSELSEEEQKEIKEAEEKLVRTILKYVEEAAK
